First the molecules themselves.
B1: GFP-HSET (full-length N-terminal hexa-histidine-tagged GFP-HSET) (natural protein, human, UniProt Q9BW19 1-673, looked up)
chain: MDPQRSPLLEVKGNIELKRPLIKAPSQLPLSGSRLKRRPDQMEDGLEPEKKRTRGLGATTKITTSHPRVPSLTTVPQTQGQTTAQKVSKKTGPRCSTAIATGLKNQKPVPAVPVQKSGTSGVPPMAGGKKPSKRPAWDLKGQLCDLNAELKRCRERTQTLDQENQQLQDQLRDAQQQVKALGTERTTLEGHLAKVQAQAEQGQQELKNLRACVLELEERLSTQEGLVQELQKKQVELQEERRGLMSQLEEKERRLQTSEAALSSSQAEVASLRQETVAQAALLTEREERLHGLEMERRRLHNQLQELKGNIRVFCRVRPVLPGEPTPPPGLLLFPSGPGGPSDPPTRLSLSRSDERRGTLSGAPAPPTRHDFSFDRVFPPGSGQDEVFEEIAMLVQSALDGYPVCIFAYGQTGSGKTFTMEGGPGGDPQLEGLIPRALRHLFSVAQELSGQGWTYSFVASYVEIYNETVRDLLATGTRKGQGGECEIRRAGPGSEELTVTNARYVPVSCEKEVDALLHLARQNRAVARTAQNERSSRSHSVFQLQISGEHSSRGLQCGAPLSLVDLAGSERLDPGLALGPGERERLRETQAINSSLSTLGLVIMALSNKESHVPYRNSKLTYLLQNSLGGSAKMLMFVNISPLEENVSESLNSLRFASKVNQCVIGTAQANRK
notes: HSET (KIFC1), human mitotic kinesin-14, full length; Dimer by mass photometry (measured 232 ± 34 kDa, expected 210 kDa for the GFP-HSET dimer); also called KIFC1; kinesin-14; source: Sf9 insect cells, baculovirus, purified (Ni-NTA); not shown: GFP, N-terminal, kept
B2: IFT52/70 complex (SNAP-IFT52/SNAP-IFT70) (complex)
chain 1: MEKELRSTILFNAYKKEVFTTNTGYKSLQKRLRSNWKIQSLKDEITSEKLIGVKLWITAGPREKFTAAEFEVLKKYLDSGGDILVMLGEGGESRFDTNINFLLEEYGIMVNNDAVVRNVYYKYFHPKEALVSDGVLNREISRAAGKAVPGVIDEENSGNNAQALTFVYPFGATLSVMKPAVAVLSTGSVCFPLNRPILAFYHSKNQGFGKLAVLGSCHMFSDQYLDKEENSKIMDVVFQWLTTGDIHLNQIDAEDPEISDYTMVPDTATLSEQLRVCLQEGDENPRDFTTLFDLSIYQLDTTCLPKVIKAHEELNVKHEPLQLVQPQFEMPLPALQPAVFPPSFRELPPPPLELFDLDETFSSEKARLAQITNKCTDEDLEFYVRKCGDILGVTSKLPKDQQDAKHILEHIFFQVVEFKKLNQEAH
chain 2: MAGLSGAQIPDGEFTAVVYRLIRNARYAEAVQLLGGELQRSPRSRAGLSLLGYCYYRLQEFALAAECYEQLGQLHPELEQYRLYQAQALYKACLYAEATRVAFLLLDNPAYHSRVLRLQAAIKYSEGDLPGSRSLVEQLPSREGGEESGGENETDGQINLGCLLYKEGQYEAACSKFFAALQASGYQPDLSYNLALAYYSSRQYASALKHIAEIIERGIRQHPELGVGMTTEGIDVRSVGNTLVLHQTALVEAFNLKAAIEYQLRNYEAAQEALTDMPPRAEEELDPVTLHNQALMNMDARPTEGFEKLQFLLQQNPFPPETFGNLLLLYCKYEYFDLAADVLAENAHLIYKFLTPYLYDFLDAVITCQTAPEEAFIKLDGLAGMLTEVLRKLTIQVQEARHNRDDEAIKKAVNEYDETMEKYIPVLMAQAKIYWNLENYPMVEKIFRKSVEFCNDHDVWKLNVAHVLFMQENKYKEAIGFYEPIVKKHYDNILNVSAIVLANLCVSYIMTSQNEEAEELMRKIEKEEEQLSYDDPDKKMYHLCIVNLVIGTLYCAKGNYDFGISRVIKSLEPYNKKLGTDTWYYAKRCFLSLLENMSKHTIMLRDSVIQECVQFLEHCELHGRNIPAVIEQPLEEERMHVGKNTVTYESRQLKALIYEIIGWNI
modifications: SNAP-Surface Alexa Fluor 647 on the SNAP tag | SNAP-Surface Alexa Fluor 647 on the SNAP tag

Series [1] concerns the molecule itself. As to the kind of experiment: mass photometry; in solution; pre-incubated 30 min at 30 °C (1.2 µM GFP-HSET, 2.4 µM IFT52/70) in 20 mM Na-Hepes pH 7.2, 150 mM NaCl, 2 mM MgCl2, 10% glycerol, 5 mM β-mercaptoethanol; measured at 2.5 nM GFP-HSET and 5 nM IFT52/70, alone or mixed, 25 °C.
Series [2] concerns the target B1. Described as above. Particulars: both partners purified.
Series [3] addresses B1. As to the kind of experiment: cell-based or functional assay.

For the molecule B1, in series [1], the “stoichiometry N” value was 2.

B2: the “stoichiometry N” value in series [2] is 2 IFT52/70 dimers per GFP-HSET dimer. In addition, the “GFP-HSET (5 nM) fluorescence at microtubule minus ends relative to the lattice, with IFT52/70 (10 nM) (1.38 versus 2.34)” value in series [3] stood at 1.7 fold.

The record behind these values is publication PMC13265731, “In vitro reconstitution defines the mechanistic basis of HSET motor activity regulation by IntraFlagellar Transport proteins” (Communications Biology, 2026).
